One may read the Kd as the free concentration of one partner at which half of the binding sites on the other are occupied at equilibrium, for simple one-to-one binding. A higher Kd goes with lower affinity.

The values that follow come from patent publication US20200247855A1 (published 2020).

The target of one experiment is T1, CXCL9_HUMAN (human, UniProt Q07325 23-125).
T1 sequence: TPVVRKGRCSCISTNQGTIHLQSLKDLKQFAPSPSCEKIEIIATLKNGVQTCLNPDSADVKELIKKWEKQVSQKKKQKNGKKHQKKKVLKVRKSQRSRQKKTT
Nature of the experiment: YSD FACS.

A further experiment concerns the target T2, P991_AMBCA (Amblyomma cajennense, UniProt A0A023FFD0 29-136).
T2 construct: His-tagged in BLI
T2 sequence: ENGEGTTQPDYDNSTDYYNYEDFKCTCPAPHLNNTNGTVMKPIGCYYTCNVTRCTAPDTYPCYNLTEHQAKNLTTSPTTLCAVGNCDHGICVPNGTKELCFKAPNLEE
Nature of the experiment: BLI.

The target in the next experiment is T3, CCL25_HUMAN (human, UniProt O15444 24-150).
T3 sequence: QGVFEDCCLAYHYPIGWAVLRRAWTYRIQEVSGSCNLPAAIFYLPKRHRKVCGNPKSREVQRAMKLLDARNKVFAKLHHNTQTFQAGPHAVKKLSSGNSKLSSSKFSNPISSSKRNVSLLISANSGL
Nature of the experiment: YSD.

The target in a further experiment is T4, P985_AMBPA (Amblyomma parvum, UniProt A0A023FT45 25-132).
T4 construct: His-tagged in BLI
T4 sequence: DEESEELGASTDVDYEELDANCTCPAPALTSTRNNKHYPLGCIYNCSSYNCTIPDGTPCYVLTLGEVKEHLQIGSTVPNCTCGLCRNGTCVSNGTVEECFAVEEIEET
Nature of the experiment: BLI.

In the next experiment the target is CXCL12_HUMAN (human, UniProt P48061 22-89). Description: YSD FACS.
CXCL12_HUMAN, sequence (P48061 22-89 limits assumed): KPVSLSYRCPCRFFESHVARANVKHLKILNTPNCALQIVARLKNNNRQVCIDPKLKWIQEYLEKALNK
Experiment [1] has as its target T5, CXCL10_HUMAN (human, UniProt P02778 22-98).
T5 sequence: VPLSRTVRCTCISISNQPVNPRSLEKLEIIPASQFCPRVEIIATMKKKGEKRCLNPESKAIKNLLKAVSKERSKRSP
Description: YSD.

In experiment [2] the target is T5, CXCL10_HUMAN. Description: YSD FACS.
The next experiment concerns the target T6, CXCL8_HUMAN (human, UniProt P10145 28-99).
T6 sequence: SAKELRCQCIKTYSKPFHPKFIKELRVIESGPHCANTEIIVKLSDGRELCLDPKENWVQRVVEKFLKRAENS
Nature of the experiment: YSD.

The target in a further experiment is T7, P672_RHIPU (Rhipicephalus pulchellus, UniProt L7MC74 22-125).
T7 sequence: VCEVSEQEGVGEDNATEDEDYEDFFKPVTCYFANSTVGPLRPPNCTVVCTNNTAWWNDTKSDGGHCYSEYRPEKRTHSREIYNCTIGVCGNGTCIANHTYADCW
Description: BLI. For orientation: BLI is a label-free optical method that tracks binding on a fibre tip over time.

A further experiment has as its target T8, P546_AMBCA (Amblyomma cajennense, UniProt A0A023FBW7 22-118).
T8 construct: His-tagged in BLI
T8 sequence: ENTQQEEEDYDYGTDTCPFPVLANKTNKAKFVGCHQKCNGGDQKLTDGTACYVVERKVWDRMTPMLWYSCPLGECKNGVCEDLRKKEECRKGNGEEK
Description: BLI.

Another experiment deals with T9, P974_AMBCA (Amblyomma cajennense, UniProt A0A023FDY8 22-118).
T9 construct: His-tagged in BLI
T9 sequence: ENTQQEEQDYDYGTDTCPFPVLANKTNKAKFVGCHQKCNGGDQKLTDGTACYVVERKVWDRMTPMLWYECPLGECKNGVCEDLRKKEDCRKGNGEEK
Description: BLI.

B1: P458_IXORI (other)
chain: GSKQPGAAGSSSDSVEAVFCPTNCTKGTNGAWSGCSDDCICVHVGENTEGSCMKFSGDYDYPTPEA
notes: yeast surface display
Consider B1, for which the “% cells over threshold fluorescence” value in the experiment with CXCL9_HUMAN was found to be 37%.

B2: CCL27_HUMAN (ligand)
chain: FLLPPSTACCTQLYRKPLSDKLLRKVIQVELQEADGDCHLQAFVLHLAQRSICIHPQNPSLSQWFEHQERKLHGTLPKLNFGMLRKMG
The molecule B2 displayed a dissociation constant (Kd) with P991_AMBCA of 38.9 nM.

B3: P1220_IXORI (other)
chain: GSTPSAMKTEDILKVLGSTSSLENHTDSSHCRYQELLDITKNIENAGFLAINCQRSCPNGKQTMVEGYGCIFKIKHATKRGKVKVKEGSCRKGACVRGSTRPPWRLLVLLGESKEEEFL
notes: yeast surface display
Take B3: the binding result in the experiment with CCL25_HUMAN was “binds”.

B4: P1100_IXORI (other)
chain: GSKGSSASQSSDNSVVAKFCDTNCTINEGGKWTECKGGCFCVHVGNETVGRCMKLDGDYDYPSPKPEE
notes: yeast surface display
Consider B4, for which the “% cells over threshold fluorescence” value with CXCL9_HUMAN was found to be 55%.

B5: CCL24_HUMAN (ligand)
chain: VVIPSPCCMFFVSKRIPENRVVSYQLSSRSTCLKAGVIFTTKKGQQFCGDPKQEWVQRYMKNLDAKQKKASPRARAVA
Take B5: the equilibrium dissociation constant (Kd) came out at 6.54 nM with P991_AMBCA and 41 nM with P985_AMBPA.

B6: P1074_IXORI (other)
chain: GSKESSAHQSSDDSIKAEFCDAKCTMKTDGKWTQCHGGCFCVHVGNETEGRCMRLDGDYDYPSTQPEE
notes: yeast surface display
B6: the “% cells over threshold fluorescence” value with CXCL9_HUMAN was 35%.

B7: P1080_IXORI (other)
chain: SAGSKGSSAPQSSGDSVVAEFCDTNCTMKKDGKWTECNGDCFCVHVGNETVGRCMRLDGDYDYTSSKTTRRNKKTRNGLCRLDRNRTTVDYPERNTREP
notes: yeast surface display
Consider B7, for which the results for the “% cells over threshold fluorescence” value with CXCL12_HUMAN and in the experiment with CXCL9_HUMAN were 53% and 49%, respectively.

B8: P1219_IXORI (other)
chain: ASLAKETEDTTLPARALVDSPDSDNCSSPQLPYFDELTYMPLGFLAVNCTKTCPVGKNGTVVNGNKCIVTWSILDVSTITVLVGSCKNGYCISDGSSECRNITLAGEDSQEEEEEAEEDEEEDDGDEEEDEEEDEEENDDD
notes: yeast surface display
In the case of B8, in the experiment with CXCL10_HUMAN [1], the binding result is reported as “binds”.

B9: P1224_IXORI (other)
chain: SDLCKMEAESSPFKLPQSSLLDAPDEEGCKYQLLFVEAEGPLVVNCTKDCPNGKIRTVVEGELCIAMVKTSSSGEATGLVGSCKRGSCVKKDDPCRTFTLSEEGDDDEEDEEEEEDEEEDEEEDEEEEEEDEEEED
notes: yeast surface display
As to B9, the binding result with CXCL10_HUMAN [1] is on record as “binds”.

B10: P1096_IXORI (other)
chain: HTTVTGSVEGKPNNPNEDIEVSYCRMNCTVENGVSSACSGDCVCVHRDNEPNGICVEITYFGDFGDPSQDPSIDEAAPRESVSKRRSNGES
notes: yeast surface display
Turning to B10, the “% cells over threshold fluorescence” value in the experiment with CXCL10_HUMAN [2] was found to be 50%.

B11: P1086_IXORI (other)
chain: GSKGQRASQVSETSITAEFCDTSCTQGTDKTWSGCSGDCFCVHVGNDTEGRCMRWDGDYPSAEEEE
notes: yeast surface display
Turning to B11, in the experiment with CXCL9_HUMAN, the “% cells over threshold fluorescence” value is 54%.

B12: P1134_IXORI (other)
chain: NEEVFTVEYCGMNCTQKSDGTWTECSGKNKDCRCYHESDAREGLCLSTEYTDFSQFETPSNSDLEAATPRPRKTLYPVRNPHGPKTRGLGYDKRILRDRVKFLI
notes: yeast surface display
On to B12, for which the “% cells over threshold fluorescence” value with CXCL10_HUMAN [2] came out at 66%.

B13: P993_AMBPA (other)
chain: HRHYDPNEPCLIAGLKTPRDALPAGCRYDCMIKKNQKLRDGLLCLDVPEKVVKRMVNYLNYSCPLGTCRKGICKRKHRNVRCQKYPVFYMSPPK
notes: yeast surface display
Consider B13, for which the binding result with CXCL8_HUMAN was “binds”.

B14: CCL23_HUMAN (ligand)
chain: RVTKDAETEFMMSKLPLENPVLLDRFHATSADCCISYTPRSIPCSLLESYFETNSECSKPGVIFLTKKGRRFCANPSDKQVQVCMRMLKLDTRIKTRKN
Regarding B14, the Kd with P991_AMBCA is 5.58 nM; in the experiment with P672_RHIPU, 10 nM.

B15: P1126_AMBCA (other)
chain: KPQILQRTDKSTDSEWDPQTCPETCIPSKNITCSDGCVCVKLGEEEEGTCFNMTGVDWLGSPSDD
notes: yeast surface display
For B15, in the experiment with CXCL9_HUMAN, the “% cells over threshold fluorescence” value turned out to be 56%.

B16: P1030_AMBPA (other)
chain: GPPSIPGNESIPGCGDAGTTTAPEDNPKHYGTLTDKKGCTLPIIGTWMTAVDHQHLQGTRGERRGPTGKVNLPASCRKNCHGRQEILRDGIPCRKVVGNPKGSKKHLKSGCLRGKCLAGQCVNDGRRISCYVPRNITDTEPTPGLLAE
notes: yeast surface display
Take B16: the binding result with CXCL8_HUMAN is given as “binds”.

B17: P1124_IXORI (other)
chain: DSKGTSDSQDSTKSIKVDFCETNCTKTDGGWTGCTGDCICVSVGDSIEGRCMDFG
notes: yeast surface display
On to B17, for which the “% cells over threshold fluorescence” value with CXCL9_HUMAN was 31%.

B18: CCL22_HUMAN (ligand)
chain: GPYGANMEDSVCCRDYVRYRLPLRVVKHFYWTSDSCPRPGVVLLTFRDKEICADPRVPWVKMILNKLSQ
For the molecule B18, the dissociation constant (Kd) stood at 3.97 nM in the experiment with P991_AMBCA, 27 nM with P546_AMBCA and 16.5 nM with P974_AMBCA.

B19: P1095_IXORI (other)
chain: HSPVAGSEVQKLTSDPNDDIDVSYCGMNCTVVNGKSDECSENCKCLHEGDDPKGICVAITYFGDWGDPNDDPKINEATPQTQIFEKKRK
notes: yeast surface display
B19: the “% cells over threshold fluorescence” value with CXCL12_HUMAN was 47%.

B20: P1283_IXORI (other)
chain: KEPEDTTLPPGALVDSPDSDNCSSPHLPYFDETTNMWMGFLAVNCTKKCPVGKHVTVVDGNKCIGTWSFLDELTITVLVGSCKDGFCETDGSSECRNITLAEEDSQEEEGAAAEEEDEEDEEDEEEEEAEEEREDDHDDA
notes: yeast surface display
As for B20, the binding result with CXCL10_HUMAN [1] is given as “binds”.
